Data set [1] relates to NC(=O)C1=CN([C@@H]2O[C@H](COP(=O)(O)OP(=O)(O)OC[C@H]3O[C@@H](n4cnc5c(N)ncnc54)[C@H](O)[C@@H]3O)[C@@H](O)[C@H]2O)C=CC1. The experiment in a line: purified protein. As to conditions: O2 as electron acceptor (air saturated), 50 mM potassium phosphate pH 6.5, 37 °C, apparent Km.
In data set [2] the test system is NC(=O)C1=CN([C@@H]2O[C@H](COP(=O)(O)OP(=O)(O)OC[C@H]3O[C@@H](n4cnc5c(N)ncnc54)[C@H](OP(=O)(O)O)[C@@H]3O)[C@@H](O)[C@H]2O)C=CC1. The experiment in a line: purified protein. As to conditions: O2 as electron acceptor (air saturated), 50 mM potassium phosphate pH 6.5, 37 °C, apparent Km.
Another data set has as its target T1, NADPH oxidase (NPOX) (Bifidobacterium longum, UniProt A0ACD7UUP8).
T1 construct: gene Blon_2447; native enzyme purified from B. infantis cells; 254 residues; 29 kDa by SDS-PAGE
T1 sequence (A0ACD7UUP8 52-305): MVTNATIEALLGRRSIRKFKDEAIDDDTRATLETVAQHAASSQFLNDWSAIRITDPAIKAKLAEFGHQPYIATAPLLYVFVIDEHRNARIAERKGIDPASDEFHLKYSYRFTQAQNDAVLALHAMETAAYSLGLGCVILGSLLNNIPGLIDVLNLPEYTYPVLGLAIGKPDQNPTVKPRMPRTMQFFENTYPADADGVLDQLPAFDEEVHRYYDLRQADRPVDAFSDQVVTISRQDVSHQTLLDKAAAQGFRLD
Put plainly: HPLC of flavin extracted from purified enzyme; UV-Vis spectrum. Type of data set: binding. As to conditions: co-purified bound flavin, flavoprotein absorbance maxima […] nm.

In the case of “NADPH oxidase (NPOX) (Bifidobacterium longum subsp. infantis ATCC 15697 = JCM 1222 = DSM 20088)”, the Michaelis constant (Km) in data set [1] is given as 113.3 ± 7.3 µM; in data set [2] it was 1.38 ± 0.12 µM.
In the case of `Cc1cc2nc3c(=O)[nH]c(=O)nc-3n(C[C@H](O)[C@H](O)[C@H](O)COP(=O)(O)O)c2cc1C` [FMN], the “HPLC of flavin extracted from purified enzyme; UV-Vis spectrum” value at NADPH oxidase (NPOX) is “The bound flavin was identified as FMN by HPLC analysis”.

As usually defined, the Km is the concentration of substrate that gives half-maximal velocity.

Values taken from paper PMC6048055, “O2-inducible H2O2-forming NADPH oxidase is responsible for the hyper O2 sensitivity of Bifidobacterium longum subsp. infantis” (Scientific Reports, 2018).
